Data as given in paper PMC4357719, “Roles of Rad51 paralogs for promoting homologous recombination in Leishmania infantum”.

B1: splayed arm (JYM925/JYM926) (structured_DNA)
DNA 1: GGGTGAACCTGCAGGTGGGCAAAGATGTCCTAGCAATGTAATCGTCAAGCTTTATGCCGT
DNA 2: ACGCTGCCGAATTCTACCAGTGCCAGCGACGGACATCTTTGCCCACCTGCAGGTTCACCC
B2: D-loop (JYM1395/JYM1396/JYM1745) (structured_DNA)
DNA 1: GCCAGGGACGGGGTGAACCTGCAGGTGGGCGGCTGCTCATCGTAGGTTAGTATCGACCTATTGGTAGAATTCGGCAGCGTCATGCGACGGC
DNA 2: GCCGTCGCATGACGCTGCCGAATTCTACCACGCTACTAGGGTGCCTTGCTAGGACATCTTTGCCCACCTGCAGGTTCACCCCGTCCCTGGC
DNA 3: AAGATGTCCTAGCAAGGCACCCTAGTAGC

Columns and labels:
[1] = molecular target: T1, LiRad51-3 (in 3-4-6 complex);LiRad51-4 (in 3-4-6 complex);LiRad51-6 (in 3-4-6 complex) (Leishmania infantum;Leishmania …, UniProt E9AHR7;A4HUT5;A4I499 1-687;1-518;1-649, ||); assay: competition EMSA; 0-40 nM complex; mixture; 25 mM MOPS pH 7.0, 0.2% Tween-20, 1 mM CaCl2, 2 mM DTT; 25 nM 32P-DNA; 37 C 10 min, then 0.2% glutaraldehyde 15 min; 8% TBE acrylamide gel; conditions: protein: recombinant;recombinant;recombinant; copies: 1;1;1; label: 32P on strand 1; fork 1:2
[2] = molecular target: T1, LiRad51-3 (in 3-4-6 complex);LiRad51-4 …; assay: competition EMSA; 0-40 nM complex; preferred substrate in mixture; 25 mM MOPS pH 7.0, 0.2% Tween-20, 1 mM CaCl2, 2 mM DTT; 25 nM 32P-DNA; 37 C 10 min, then 0.2% glutaraldehyde 15 min; 8% TBE acrylamide gel; conditions: protein: recombinant;recombinant;recombinant; copies: 1;1;1; label: 32P on strand 3 (JYM1745); D-loop: 1:2 with unpaired bubble, 3 paired to 2 in the bubble

| Binder | binding result [1] | binding result [2] |
| --- | --- | --- |
| B1 | binds |  |
| B2 |  | binds |
